The target of this assay is T1, human MARCO (macrophage receptor with a collagenous structure) (human, UniProt Q9UEW3 1-520).
T1 construct: also called HIN-2 receptor
T1 sequence: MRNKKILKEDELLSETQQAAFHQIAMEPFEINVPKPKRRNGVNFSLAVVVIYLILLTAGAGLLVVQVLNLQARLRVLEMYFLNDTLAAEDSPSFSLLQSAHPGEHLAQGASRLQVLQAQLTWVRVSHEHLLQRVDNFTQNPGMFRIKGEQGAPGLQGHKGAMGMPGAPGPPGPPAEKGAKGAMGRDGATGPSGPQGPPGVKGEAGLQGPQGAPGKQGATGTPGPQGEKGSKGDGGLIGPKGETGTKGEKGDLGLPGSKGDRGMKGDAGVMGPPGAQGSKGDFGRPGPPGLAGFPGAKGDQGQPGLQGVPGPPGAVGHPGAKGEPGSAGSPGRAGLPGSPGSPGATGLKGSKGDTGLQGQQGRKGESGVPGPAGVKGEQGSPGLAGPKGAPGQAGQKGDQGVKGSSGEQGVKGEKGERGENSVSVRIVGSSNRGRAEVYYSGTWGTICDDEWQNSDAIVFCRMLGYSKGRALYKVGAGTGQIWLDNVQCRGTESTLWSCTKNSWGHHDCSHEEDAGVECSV
In words: staining of retrovirally transduced U937 cells with FLAG-HIN-2. The source says: cDNA for both MARCO and SP-C were subcloned into the MSCV-IRES retroviral vector, which contains an IRES element followed by the gene encoding green fluorescent protein (GFP). Briefly, for MARCO, full length cDNA fragment encoding MARCO was amplified by PCR from the single MARCO expression cell clone cDNA with two primers from the human lung retroviral cDNA library (Strategene). The amplified cDNA fragment was digested with Sal I and Not I and cloned into the Xho I and Not I site of MSCV-GFP plasmid and PRK plasmids to make MSCV-MARCO and PRK-MARCO. SP-C cDNA was similarly prepared. Viruses were produced and used to infect U937 cells, and the infected cells were stained with FLAG-HIN-2. The FLAG-HIN-2 specifically stained the U937 cell line transduced with retroviruses encoding the MARCO, but no staining was detected on uninfected, MSCV-empty vector infected, or SP-C infected cells (data not shown).

B1: FLAG-HIN-2 (mature human HIN-2 with a carboxy-terminal Flag tag, secreted from 293 cells) (ligand)
chain: FLINKVPLPVDKLAPLPLDNILPFMDPLKLLLKTLGISVEHLVEGLRKCVNELGPEASEAVKKLLEALSHLV
notes: also called HIN-2-FLAG; UGRP1; not shown: C-terminal Flag tag from the PRK-C-FLAG vector; The tagged mature protein is stated to be 86 amino acids, so 14 residues
Consider B1, for which the binding result is “binds”.
